The DeepSol protein solubility set

Experiment: soluble on expression in E. coli; label from the status in PepcDB or PDB records

Sequence	soluble on expression in E. coli
ETRECKEALAKSEMNVNMKCQLPNFTAETPIQNVILHEHHIFLGATNYIYVLNEEDLQKVAEYKTGPVLEHPDCFPCQDCSSKANLSGGVWKDNINMALVVDTYYDDQLISCGSVNRGTCQRHVFPHNHTADIQSEVHCIFSPQIEEPSQCPDCVVSALGAKVLSSVKDRFINFFVGNTINSSYFPDHPLHSISVRRLKETKDGFMFLTDQSYIDVLPEFRDSYPIKYVHAFESNNFIYFLTVQRETLDAQTFHTRIIRFCSINSGLHSYMEMPLECILTEKRKKRSTKKEVFNILQAAYVSKPGAQLARQIGASLNDDILFAVFAQSKPDSAEPMDRSAMCAFPIKYVNDFFNKIVNKNNVRCLQHFYGPNHEHCFNRTLLRNSSGCEARRDEYRTEFTTALQRVDLFMGQFSEVLLTSISTFIKGDLTIANLGTSEGRFMQVVVSRSGPSTPHVNFLLDSHPVSPEVIVEHTLNQNGYTLVITGKKITKIPLNGLGCRHFQSCSQCLSAPPFVQCGWCHDKCVRSEECLSGTWTQQICLPAIYKVFPNSAPLEGGTRLTICGWDFGFRRNNKFDLKKTRVLLGNESCTLTLSESTMNTLKCTVGPAMNKHFNMSIIISNGHGTTQYSTFSYVDPVITSISPKYGPMAGGTLLTLTGNYLNSGNSRHISIGGKTCTLKSVSNSILECYTPAQTISTEFAVKLKIDLANRETSIFSYREDLHHHHHH	soluble
ETVHETPLLIFPPWINKFYILDLKPQNSLLKWLVDQGFTVFVVSWVNPDKSYAGIGMDDYIREGYMRAMAEVRSITRQKQINAVGYCIAGTTLTLTLAHLQKAGDPSVRSATFFTTLTDFSDPGEVGVFLNDDFVDGIERQVAVDGILDKTFMSRTFSYLRSNDLIYQPAIKSYMMGEAPPAFDLLYWNGDGTNLPAQMAVEYLRGLCQQDRLAGGTFPVLGSPVGLKDVTLPVCAIACETDHIAPWKSSFNGFRQFGSTDKTFILSQSGHV	not soluble
EVQLVESGGGLVQPGGSLRLSCAASGFNIKEYYMHWVRQAPGKGLEWVGLIDPEQGNTIYDPKFQDRATISADNSKNTAYLQMNSLRAEDTAVYYCARDTAAYFDYWGQGTLVTVSSASTKGPSVFPLAPSSKSTSGGTAALGCLVKDYFPEPVTVSWNSGALTSGVHTFPAVLQSSGLYSLSSVVTVPSSSLGTQTYICNVNHKPSNTKVDKKVEPKSCDKTHT	soluble
EVVVIGYGSVKKDDLSGSVVAIKAEEMNKGAVTSPQELIMGKVPGLSVSQGDGAPGAGSTIRIRGGASLNASNDPLIVIDGIPVSNDAAPGTPNALATINPNDIETFTVLKDASATAIYGSRASNGVIII	not soluble
FDAIAGSISDAVVTIDADSEVVYANDEAVELTGYDRKELVGDDFAKVIPEHLRSAHFEGLDRYLRTGNRNVDWDYLELPLVTAAGDQLTVAVSFGDFERNGQWFCTGVLRDIS	not soluble
FEKVYHLKLSIKGITPQIWRRIQVPENYTFLDLHKAIQAVMDWEDYHLHEFEMVNPKTGMLDKIGAEGDDFDAFGGPLVSEKKAKLSDYFTLENKEALYTYDFGDNWQVKVRLEKILPRKEGVEYPICTAGKRAAVPEDSGGVWGYEEMLEVLKDSEHEEYEDTVLWLGDDFDPEYFDPKDVS	not soluble
FIFLALLGAAVAFPVDDDDKIVGGYTCGANTVPYQVSLNSGYHFCGGSLINSQWVVSAAHCYKSGIQVRLGEDNINVVEGNEQFISASKSIVHPSYNSNTLNNDIMLIKLKSAASLNSRVASISLPTSCASAGTQCLISGWGNTKSSGTSYPDVLKCLKAPILSDSSCKSAYPGQITSNMFCAGYLEGGKDSCQGDSGGPVVCSGKLQGIVSWGSGCAQKNKPGVYTKVCNYVSWIKQTIASN	soluble
FMDELVSLTYRSRVRLADPVADIVQIMRASRVRNLRLGITGILLYNGVHFVQTIEGPRSACDELFRLISADPRHQEILAFDLEPITARRFPDWSMRIVSRKELRALAPDLERLDLSGPEDVAELHRTIAASLSRGDA	soluble
FNCNKREGPCSQRSLCECDPNLQLGRHSDQLWHYNLRTNRCERGGYRDNCNSHSSSGACVMACERIHHHHHH	soluble
GAEVDQATKPAEAKYYIAGTITDATTGQELTTAKVTLGDKSVTSSFNEQVNYKAEGYALVVSADGYYPVKRQVYLNQVSDGQTSVATVNVALVSVEAAVIPPVVPPTDPETDINEGEATKVADKAVEVAKPSESTVTDMLAGTTATPEEKKALDETLEMAGGMKVGETTPEVLADGSILAITPVKFTNPIQDAPAMVPYFYNEGCELTGDVKEVAAPVTRADGAVAADIQKAFLSNAAKALNMNAGFVQKIGYTRISVLNGYSILGYTIKGQLVSKKLTFLISGKYYEGIVSYQKSVMIYPNYYSHDSHDSHDSHGFNPNAGGGSND	soluble
GAHVSRVEKLPKDYQIVYKEIQKYLFKVGPVELNEGIGLLSEILGFFEEGAAAGKGVLDVTGTDVAAFCDALIGDSKTYADLYQESIQQHVDKAMKNMKD	soluble
GAKNYYDITLALAGICQSARLVQQLAHQGHCDADALHVSLNSIIDMNPSSTLAVFGGSEANLRVGLETLLGVLNASSRQGLNAELTRYTLSLMVLERKLSSAKGALDTLGNRINGLQRQLEHFDLQSETLMSAMAAIYVDVISPLGPRIQVTGSPAVLQSPQVQAKVRATLLAGIRAAVLWHQVGGGRLQLMFSRNRLTTQAKQILAHLTPEL	soluble
GAMAATAAEAVASGSGEPREEAGALGPAWDESQLRSYSFPTRPIPRLSQSDPRAEELIENEEPVVLTDTNLVYPALKWDLEYLQENIGNGDFSVYSASTHKFLYYDEKKMANFQNFKPRSNREEMKFHEFVEKLQDIQQRGGEERLYLQQTLNDTVGRKIVMDFLGFNWNWINKQQGKRGWGQLTSNLLLIGMEGNVTPAHYDEQQNFFAQIKGYKRCILFPPDQFECLYPYPVHHPCDRQSQVDFDNPDYERFPNFQNVVGYETVVGPGDVLYIPMYWWHHIESLLNGGITITVNFWYKGAPTPKRIEYPLKAHQKVAIMRNIEKMLGEALGNPQEVGPLLNTMIKGRYN	soluble
GAMAPGGEMTFSIPTHKCGLVIGRGGENVKAINQQTGAFVEISRQLPPNGDPNFKLFIIRGSPQQIDHAKQLIEEKIEGPLCPVGPGPGGPGPAGPMGPFNPGPFNQ	soluble
GAMDSSEMSTICDKTLNPSFCLKFLNTKFASPNLQALAKTTLDSTQARATQTLKKLQSIIDGGVDPRSKLAYRSCVDEYESAIGNLEEAFEHLASGDGMGMNMKVSAALDGADTCLDDVKRLRSVDSSVVNNSKTIKNLCGIALVISNMLPRN	soluble
GAMGSMNGIDDLLNINDRIKQVQNERNELASKLQNLKQSLASNDTEVALSEVIAQDIIEVGASVEGLEQLRAKYGDLQILNKLEKVAVQQTQMQAGVDKLDSFERQLDELAEQPPDQFTLDDVKALHSKLTSVFATVPQINNIDSQYAAYNKLKSKVTGKYNDVIIQRLATNWSNTFDQKLLEAQWDTQKFASTSVGLVKCLRENSTKLYQLSLLYLPLEEETQNGDSERPLSRSNNNQEPVLWNFKSLANNFNVRFTYHFHATSSSSKIETYFQFLNDYLAENLYKCINIFHDDCNGLTKPVIHEQFINYVLQPIRDKVRSTLFQNDLKTLIVLISQILATDKNLLNSFHYHGLGLVSLISDEVWEKWINYEVEMANRQFINITKNPEDFPKSSQNFVKLINKIYDYLEPFYDLDFDLLVRYKLMTCSLIFMNLTSSYLDYILTVDSLNETRTKEQELYQTMAKLQHVNFVYRKIKSLSSNFIFIQLTDIVNSTESKKYNSLFQNVENDYEKAMSTDMQNSIVHRIQKLLKETLRNYFKISTWSTLEMSVDENIGPSSVPSAELVNSINVLRRLINKLDSMDIPLAISLKVKNELLNVIVNYFTESILKLNKFNQNGLNQFLHDFKSLSSILSLPSHATNYKCMSLHELVKILKLKYDPNNQQFLNPEYIKTGNFTSLKEAYSIKYLKDTKIQDALYRIIYGNIL	soluble
GAMGSPKEHIDLYQQIKWNGWGDTRKFLHQLKPSGTIAMTTPEVSSVPLPSLRGFIKKELTLPGEEDKPFVLDETPALQIENIHVDPPKQYPEFVRELKAFFLPDQLKDDKLARITHTFGKSLRDLIRVRIGQVKNAPDLIVLPHSHEEVERLVQLAHKYNVVIIPMGGGSNIVGAIEPVSNERFTVSIDMRRMNKVLWVDRREMTACIQVGIMGPELEKQLHKQGVSLGHDPDSFEFSTLGGWLATCSSGHQSDKYGDIEDMAVSFRTVTPTGTLELRNGARSGAGINYKHIILGSEGTLGIITEAVMKVHAVPQAVEYYGFLFPTFAHAVSALQQIRSSEVIPTMIRVYDPEETQLSFAWKPSKGAVSEFTSAMVKKYLHYIRSFDFKNVCLSIIGFEGPKKVVDFHRTSVFDILSKNAAFGLGSAPGKTWAEKRYDLPYIRDFLLDHNMWVDVAETTVSYANLQTLWKDAKQTFVKHFKDQGIPAWICAHISHTYTNGVCLYFIFASKQNENKDMAQYIEAKKLMTDIIFKYGGSLSHHHGVGYEHVPWMTRYATRGWINVYRSLKETIDPKDICNPRKLI	soluble
GAMSEAFHTHSGIGVPLRRSNVDTDQIIPAVFLKRVTRTGFEDGLFAGWRSDPAFVLNLSPFDRGSVLVAGPDFGTGSSREHAVWALMDYGFRVVISSRFGDIFRGNAGKAGLLAAEVAQDDVELLWKLIEQSPGLEITANLQDRIITAATVVLPFKIDDHSAWRLLEGLDDIALTLRKLDEIEAFEGA	soluble
GAMSGLADKVIWAVNAGGESHVDVHGIHYRKDPLEGRVGRASDYGMKLPILRSNPEDQVLYQTERYNEDSFGYDIPIKEEGEYVLVLKFAEVYFAQSQQKVFDVRVNGHTVVKDLDIFDRVGHSTAHDEIIPISIKKGKLSVQGEVSTFTGKLSVEFVKGYYDNPKVCALFIMKGTADDVPMLQPHPGLE	soluble
GAMVETKCPNLDIVTSSGEFHCSGCVEHMPEFSYMYWLAKDMKSDEDTKFIEHLGDGINEDETVRTTDGGITTLRKVLHVTDTNKFAHYRFTCVLTTLDGVSKKNIWLK	soluble
GANRTLIVTTILEEPYVMYRKSDKPLYGNDRFEGYCLDLLKELSNILGFLYDVKLVPDGKYGAQNDKGEWNGMVKELIDHRADLAVAPLTITYVREKVIDFSKPFMTLGISILYRKGTPIDSADDLAKQTKIEYGAVRDGSTMTFFKKSKISTYEKMWAFMSSRQQSALVKNSDEGIQRVLTTDYALLMESTSIEYVTQRNCNLTQIGGLIDSKGYGVGTPIGSPYRDKITIAILQLQEEGKLHMMKEKWWRGNGCPE	soluble
GAVDLNKENRDPKYVESIVNRSQKIVDKLGLTDAKVAEDVCNVIANRYFELNDIYEIRDAKVKAVKESGLTGDAKNEALKAAENEKDAALYRSHFAFPASLSLFLNEEQIEAVKDGMTYGVVKVTYEATLDMIPSLKEEEKVQIYAWLVEAREFAMDAENSNKKHAAFGKYKGRINNYLAKRGYNLTKEREEWAKRVKARGGTL	soluble
GDQEPPLYVNENDIFTSPTRIEATLNGLYAAIKNTGTKSLMGGKSYLVFDNRGDDVINISNNLVTLFNTYNMNVGITDAENADTWTYAYLAINKVNTFLQSLEGAREVAGENYDRYVQEAKFVRALAYYYLNNLYPTPYSVNPDAKSVPLRLTAEAGTENNNMPRSTVKQIYEHILSDLENISALDTEVNTYTGVTHATQAAANMLKMRVYMAMNEWDKAITAGELVTGYSLPEDVTLIYKAPYFSQESIFSLPMADTNIPNTQQSLAEYYYDGKIMLIDTKSGIMSKPDYSLATDKRIIAFKGEKDLLMKFTDAKTKLQWVPIFRYAETLLDLAECYANKAGGEATAKSLLKQVRGRSVDAATDPLNIDNLSGDALKEAIYNEKRLEFIGEGIRGIDIMRRGEHFIKVGENETINVGPSDEKYTWPIPQVELLLNKDINK	soluble
GEERKCLQTHRVTVHGVPGPEPFTVFTINGGTKAKQLLQQILTNEQDIKPVTTDYFLMEEKYFISKEKNECRKQPFQRAIGPEEEIMQILSSWFPEEGYMGRIVLKTQQE	soluble
